Key:
[1] = molecular target: ProR-like protein (OCC_00372) from Thermococcus litoralis, bifunctional proline racemase/hydroxyproline epimerase (Thermococcus litoralis DSM 5473); assay: SEC; analytic gel filtration by HPLC on TSKgel G3000SWXL, 50 mM Tris-HCl pH 8.0, 1 ml/min, high molecular weight calibration kit; data not shown
[2] = molecular target: T1, HjProR (Haloarcula japonica, UniProt M0LMI3); assay: chiral HPLC of NBD-F derivatives, racemase activity; assay type: biochemical
T1 construct: gene C444_02196; full length, N-terminal His6 tag kept (pETDuet-1), E. coli; dimer; possible partial proteolysis
T1 sequence (M0LMI3 entry or part of it): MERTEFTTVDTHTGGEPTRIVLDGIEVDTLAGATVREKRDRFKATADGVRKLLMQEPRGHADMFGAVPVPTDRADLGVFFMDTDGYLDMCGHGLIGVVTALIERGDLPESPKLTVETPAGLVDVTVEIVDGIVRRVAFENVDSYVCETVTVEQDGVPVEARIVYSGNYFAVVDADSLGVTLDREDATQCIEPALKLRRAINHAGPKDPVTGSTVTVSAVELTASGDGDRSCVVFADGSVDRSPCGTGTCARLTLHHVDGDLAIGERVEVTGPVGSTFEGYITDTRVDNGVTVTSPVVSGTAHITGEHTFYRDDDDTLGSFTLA

[3] = molecular target: Hydroxyproline 2-epimerase from Azospirillum brasilense (Azospirillum brasilense ATCC 29145); assay: SEC; analytic gel filtration by HPLC on TSKgel G3000SWXL, 50 mM Tris-HCl pH 8.0, 1 ml/min, high molecular weight calibration kit; data not shown
[4] = molecular target: ProR-like protein from Ferroplasma acidiphilum (Ferroplasma acidiphilum DSM 12658); assay: as above
[5] = molecular target: ProR-like protein from Haloarcula japonica (Haloarcula japonica DSM 6131); assay: as above
[6] = molecular target: T2, TlProR (bifunctional proline racemase/hydroxyproline epimerase) (Thermococcus litoralis, UniProt H3ZMH5); assay: HPLC racemase assay with L-proline, chiral separation; assay type: biochemical
T2 construct: gene OCC_00372
T2 sequence (H3ZMH5 1-331): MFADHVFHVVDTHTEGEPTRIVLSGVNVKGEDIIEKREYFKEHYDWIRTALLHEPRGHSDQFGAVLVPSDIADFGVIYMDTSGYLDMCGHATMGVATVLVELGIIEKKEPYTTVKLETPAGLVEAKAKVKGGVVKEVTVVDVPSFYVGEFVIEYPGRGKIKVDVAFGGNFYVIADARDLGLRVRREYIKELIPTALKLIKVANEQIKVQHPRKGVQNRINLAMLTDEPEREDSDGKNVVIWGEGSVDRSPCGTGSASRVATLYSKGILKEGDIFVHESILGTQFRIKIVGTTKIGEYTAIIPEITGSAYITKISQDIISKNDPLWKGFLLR

[7] = substrate: O=C(O)[C@@H]1CCCN1; assay: purified protein
[8] = substrate: O=C(O)[C@@H]1C[C@@H](O)CN1; assay: purified protein
[9] = substrate: O=C(O)[C@H]1CCCN1; assay: purified protein
[10] = substrate: O=C(O)[C@H]1C[C@@H](O)CN1; assay: purified protein
[11] = substrate: O=C(O)[C@H]1NCC[C@@H]1O; assay: purified protein
[12] = molecular target: the molecule itself; assay: SEC; analytic gel filtration by HPLC on TSKgel G3000SWXL, 50 mM Tris-HCl pH 8.0, 1 ml/min, high molecular weight calibration kit; data not shown

ProR-like protein (OCC_00372) from Thermococcus litoralis, bifunctional proline racemase/hydroxyproline epimerase (enzyme)
stoichiometry N [1]: 2

O=C(O)c1ccc[nH]1 [pyrrole-2-carboxylate]
IC50 [2]: 295 µM

Hydroxyproline 2-epimerase from Azospirillum brasilense (enzyme)
stoichiometry N [3]: 2

ProR-like protein from Ferroplasma acidiphilum (enzyme)
stoichiometry N [4]: 2

ProR-like protein from Haloarcula japonica (enzyme)
stoichiometry N [5]: 2

O=C(O)c1ccc[nH]1 [PYC, pyrrole-2-carboxylate]
IC50 [6]: 217 µM

B1: TlProR (bifunctional proline racemase/hydroxyproline epimerase) (Thermococcus litoralis DSM 5473) (protein)
chain: MFADHVFHVVDTHTEGEPTRIVLSGVNVKGEDIIEKREYFKEHYDWIRTALLHEPRGHSDQFGAVLVPSDIADFGVIYMDTSGYLDMCGHATMGVATVLVELGIIEKKEPYTTVKLETPAGLVEAKAKVKGGVVKEVTVVDVPSFYVGEFVIEYPGRGKIKVDVAFGGNFYVIADARDLGLRVRREYIKELIPTALKLIKVANEQIKVQHPRKGVQNRINLAMLTDEPEREDSDGKNVVIWGEGSVDRSPCGTGSASRVATLYSKGILKEGDIFVHESILGTQFRIKIVGTTKIGEYTAIIPEITGSAYITKISQDIISKNDPLWKGFLLR
Km [7]: 1210 µM
kcat [7]: 2.78 s⁻¹
kcat/Km [7]: 2300 M⁻¹ s⁻¹
Km [8]: 6080 µM
kcat [8]: 12.1 s⁻¹
kcat/Km [8]: 2030 M⁻¹ s⁻¹
Km [9]: 91.9 µM
kcat [9]: 2.22 s⁻¹
kcat/Km [9]: 26200 M⁻¹ s⁻¹
Km [10]: 6650 µM
kcat [10]: 3.83 s⁻¹
kcat/Km [10]: 580 M⁻¹ s⁻¹
Km [11]: 502 µM
kcat [11]: 3.6 s⁻¹
kcat/Km [11]: 7170 M⁻¹ s⁻¹

B2: Proline racemase from Clostridium difficile (enzyme, Clostridium difficile 630, UniProt Q17ZY4 1-335, looked up)
chain: MKFSRSIQAIDSHTAGEATRIVVGGIPNIKGNSMPEKKEYLEENLDYLRTAIMLEPRGHNDMFGSVMTQPCCPDADFGIIFMDGGGYLNMCGHGTIGAMTAAIETGVVPAVEPVTHVVMEAPAGIIRGDVTVVDGKAKEVSFLNVPAFLYKEGVEVDLPGVGTVKFDISFGGSFFAIIHASQLGLKIEPQNAGKLTELAMKLRDIINEKIEIQHPTLAHIKTVDLVEIYDEPTHPEATYKNVVIFGQGQVDRSPCGTGTSAKLATLHAKGELKVGEKFVYESILGTLFKGEIVEETKVADFNAVVPKITGSAYITGFNHFVIDEEDPLKHGFILK
notes: Proline racemase CdProR of Clostridium difficile 630, gene CD630_32370 amplified from genomic DNA into pETDuet-1; calculated mass with His6-tag 37.7 kDa; also called CdProR; source: E. coli BL21-CodonPlus(DE3)-RIL, purified (Ni-NTA); not shown: His6, N-terminal, kept
stoichiometry N [12]: 2

Reference: paper PMC4364671, “Identification and Characterization of Bifunctional Proline Racemase/Hydroxyproline Epimerase from Archaea: Discrimination of Substrates and Molecular Evolution” (PLoS ONE, 2015)
